Assay [1] concerns the target T1, mIgE.FcS (CH2-cytoplasmic tail of the short form of human membrane ε chain) on Ramos cells (human, UniProt P01854-3 104-494, limits assumed).
T1 construct: domain: CH2-cytoplasmic tail of the short form of membrane ε chain; also called mIgE.FcS Ramos
Nature of the assay: flow cytometry on mIgE.FcS-expressing Ramos cells; c8D6, not hu8D6. Here is the method: (§1) Ramos cells expressing mIgE.FcL or mIgE.FcS were resuspended in FACS buffer (1% FBS and 0.1% sodium azide in 1×PBS) at a cell density of 2×10⁶ cells/mL. […] Bound antibodies were detected by FITC-labeled goat IgG specific for human IgG-Fc (Caltag Laboratories). The stained cells were analyzed on a FACS Canto II flow cytometer (BD Biosciences). The geometric means of fluorescence intensity for the binding of antibodies to Ramos cell lines were analyzed using the FCSExpress software (DeNono software). The EC₅₀ was calculated using the Prism software.
A general note: Flow cytometry measures light scatter and fluorescence of single cells or particles in a stream.

Assay [2] concerns the target Fc region of human IgE (ε.Fc 2-4), Ser226 to Gly599, N265Q and N371Q (human) (UniProt P01854). Nature of the assay: competition ELISA on coated ε.Fc 2-4; competitor HRP-conjugated c8D6 at fixed dilution, unconjugated antibody titrated. Background: In an ELISA, binding on a coated surface is turned into a signal by an enzyme label.
The target in assay [3] is T1, mIgE.FcS (CH2-cytoplasmic tail of the …). Nature of the assay: flow cytometry on mIgE.FcS-expressing Ramos cells, FITC anti-human IgG-Fc detection, geometric mean intensity. How it is done:
as §1

For assay [4], the target named is T2, mIgE.FcL (CH2-cytoplasmic tail of the long form of human membrane ε chain) on Ramos cells (human, UniProt P01854 104-546, limits assumed).
T2 construct: domain: CH2-cytoplasmic tail of the long form of membrane ε chain; also called mIgE.FcL Ramos
T2 sequence (P01854 104-546 limits assumed, form in doubt): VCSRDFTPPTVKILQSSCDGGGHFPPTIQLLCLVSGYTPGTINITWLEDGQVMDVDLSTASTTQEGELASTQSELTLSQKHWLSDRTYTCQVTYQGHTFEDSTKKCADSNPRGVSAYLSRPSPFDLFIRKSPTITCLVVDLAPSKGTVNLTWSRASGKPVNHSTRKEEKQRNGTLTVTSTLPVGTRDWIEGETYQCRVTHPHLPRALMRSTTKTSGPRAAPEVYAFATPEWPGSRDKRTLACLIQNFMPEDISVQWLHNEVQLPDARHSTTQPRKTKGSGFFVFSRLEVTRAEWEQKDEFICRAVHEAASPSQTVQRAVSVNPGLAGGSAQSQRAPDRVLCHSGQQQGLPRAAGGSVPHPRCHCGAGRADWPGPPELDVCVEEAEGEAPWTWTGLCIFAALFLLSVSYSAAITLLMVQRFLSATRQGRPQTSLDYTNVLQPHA
Nature of the assay: flow cytometry on mIgE.FcL-expressing Ramos cells, FITC anti-human IgG-Fc detection, geometric mean intensity. How it is done:
as §1

The target in assay [5] is Fc region of human IgE (ε.Fc 2-4), Ser226 to Gly599, N265Q and N371Q (human) (UniProt P01854). Nature of the assay: ELISA, ε.Fc 2-4 coated on the plate, antibody titrated, OD450.
Chain of Fc region of human IgE (ε.Fc 2-4), Ser226 to Gly599, N265Q and N371Q (human) (P01854 106-427, stated change not applied): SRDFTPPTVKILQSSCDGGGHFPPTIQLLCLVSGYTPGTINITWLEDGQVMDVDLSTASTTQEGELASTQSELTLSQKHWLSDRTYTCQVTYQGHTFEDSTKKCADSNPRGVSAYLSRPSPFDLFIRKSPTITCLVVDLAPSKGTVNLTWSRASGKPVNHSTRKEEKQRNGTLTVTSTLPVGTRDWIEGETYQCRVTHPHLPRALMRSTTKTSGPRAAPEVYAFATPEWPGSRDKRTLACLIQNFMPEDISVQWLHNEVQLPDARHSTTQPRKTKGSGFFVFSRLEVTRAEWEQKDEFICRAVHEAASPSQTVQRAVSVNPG
Assay [6] shares this target. As to the kind of experiment: ELISA, ε.Fc 2-4 coated, antibody titrated.
Assay [7] has the same target. As to the kind of experiment: competitive ELISA on coated ε.Fc 2-4; competitor HRP-conjugated c8D6.

The source of these data is patent US20170121425A1 (ACADEMIA SINICA, published 2017).

T1 sequence (P01854 other isoform, or with tags, fused parts or gaps limits assumed): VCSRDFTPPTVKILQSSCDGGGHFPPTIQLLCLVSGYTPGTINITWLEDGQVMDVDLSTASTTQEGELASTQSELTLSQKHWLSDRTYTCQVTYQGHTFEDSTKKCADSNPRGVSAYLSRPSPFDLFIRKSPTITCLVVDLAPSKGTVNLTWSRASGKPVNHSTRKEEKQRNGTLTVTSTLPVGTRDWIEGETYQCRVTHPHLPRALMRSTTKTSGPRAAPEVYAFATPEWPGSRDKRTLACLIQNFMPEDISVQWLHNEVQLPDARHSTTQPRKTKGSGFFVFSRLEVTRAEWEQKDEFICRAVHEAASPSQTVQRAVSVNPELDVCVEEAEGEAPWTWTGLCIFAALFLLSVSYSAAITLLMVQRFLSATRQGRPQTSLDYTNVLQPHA

B1: chimeric 8D6 antibody (antibody, V domains shown)
VH: QVQLQQSGAELAKPGASVMLSCKASGYTFNGYWMHWVKQRPGQDLEWIGYINPTTGHTEYNQKFKDKATLTADESSNTAYIELSSLTSDDSAVYYCARQEYRHSWFAYWGQGTLVTVSA
VL: DIVLTQSPASLAVSLGQRATISCKASQSVDYDGDTYMNWYHQKPGQPPKLLIYAASNLDSGIPARFSGSGSGTDFTLNIHPVEEEDAATYYCQQTNEDPWTFGGGTKLEIK
notes: c8D6 is the chimeric form of 8D6 with human constant regions (detected with anti-human IgG-Fc); also called parent c8D6 antibody; HRP-conjugated c8D6
As usually defined, the EC50 is the concentration giving half of the maximal effect. Read a low EC50 as greater potency. The EC50 (read off the curve) is the concentration that produces a half-maximal response. Read a high EC50 (read off the curve) as a need for much substance. As usually defined, the IC50 is the point on the concentration scale where inhibition reaches its midpoint. A high value points to weaker potency. On to B1, for which the EC50 in assay [1] came to 0.3 nM; in assay [6], 0.116 nM. In assay [2], this molecule returned an IC50 (read off the curve) of 400 ng/mL. For the same molecule, the concentration giving a half-maximal response (EC50 (read off the curve)) in assay [3] is roughly 40 ng/mL; in assay [4], roughly 30 ng/mL; in assay [5], 20 ng/mL. Further, the IC50 in assay [7] came out at 2.28 nM.
